One series concerns the target T1, KAE1;BUD32;CGI121;PCC1 (Arabidopsis thaliana;Arabidopsis …, UniProt O49653;Q94K14;Q6NMZ4;Q8GWD7 1-353;1-226;1-172;1-96, |||).
T1 sequence 1: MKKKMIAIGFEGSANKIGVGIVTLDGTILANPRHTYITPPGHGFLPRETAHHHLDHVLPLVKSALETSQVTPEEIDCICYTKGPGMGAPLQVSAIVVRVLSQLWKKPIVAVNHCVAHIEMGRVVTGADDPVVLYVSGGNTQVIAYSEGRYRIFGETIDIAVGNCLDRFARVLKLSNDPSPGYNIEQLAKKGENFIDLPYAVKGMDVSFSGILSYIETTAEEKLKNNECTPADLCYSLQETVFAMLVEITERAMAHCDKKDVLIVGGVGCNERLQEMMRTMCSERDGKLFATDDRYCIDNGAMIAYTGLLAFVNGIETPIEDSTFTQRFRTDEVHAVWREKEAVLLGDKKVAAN
T1 sequence 2: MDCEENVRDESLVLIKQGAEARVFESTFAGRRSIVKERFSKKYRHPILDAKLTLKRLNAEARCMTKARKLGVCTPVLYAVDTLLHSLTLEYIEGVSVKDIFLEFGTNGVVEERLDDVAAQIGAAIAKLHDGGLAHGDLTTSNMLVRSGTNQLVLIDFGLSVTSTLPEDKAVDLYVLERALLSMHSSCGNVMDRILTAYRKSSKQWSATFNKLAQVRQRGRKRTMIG
T1 sequence 3: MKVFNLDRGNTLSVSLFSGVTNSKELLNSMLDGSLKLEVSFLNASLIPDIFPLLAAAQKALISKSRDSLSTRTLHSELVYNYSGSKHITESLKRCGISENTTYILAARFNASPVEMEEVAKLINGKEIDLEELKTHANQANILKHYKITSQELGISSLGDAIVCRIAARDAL
T1 sequence 4: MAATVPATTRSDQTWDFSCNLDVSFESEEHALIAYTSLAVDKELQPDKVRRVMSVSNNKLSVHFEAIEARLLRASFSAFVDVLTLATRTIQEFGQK
As to the kind of experiment: MST; KEOPS dimer; MST: 20 mM PBS pH 7.5, 300 mM NaCl, 0.05% Tween 20, 25 C, 50 nM RNA; EMSA: 20 mM Tris-HCl pH 7.5, 300 mM NaCl, 5 mM b-mercaptoethanol, 20% glycerol, agarose gel in Tris-glycine pH 8.0 (8.5 for FAM-RNA), 4 C. The following applies: protein: recombinant;recombinant;recombinant;recombinant; tags: none (6His on partner PCC1);none (6His on partner CGI121);6His (C-term);6His (C-term); chain copies: 2;2;2;2; label: 5' 6-FAM; tRNA cloverleaf. For orientation: In EMSA bound probe runs differently from free probe, usually more slowly.

The target of series [1] is T2, KAE1 mutant-2;BUD32;CGI121;PCC1 (Arabidopsis thaliana;Arabidopsis …, UniProt O49653;Q94K14;Q6NMZ4;Q8GWD7 1-353;1-226;1-172;1-96, G43E;F44R;L45K;P46R;R47D;E48K|||).
T2 sequence 1: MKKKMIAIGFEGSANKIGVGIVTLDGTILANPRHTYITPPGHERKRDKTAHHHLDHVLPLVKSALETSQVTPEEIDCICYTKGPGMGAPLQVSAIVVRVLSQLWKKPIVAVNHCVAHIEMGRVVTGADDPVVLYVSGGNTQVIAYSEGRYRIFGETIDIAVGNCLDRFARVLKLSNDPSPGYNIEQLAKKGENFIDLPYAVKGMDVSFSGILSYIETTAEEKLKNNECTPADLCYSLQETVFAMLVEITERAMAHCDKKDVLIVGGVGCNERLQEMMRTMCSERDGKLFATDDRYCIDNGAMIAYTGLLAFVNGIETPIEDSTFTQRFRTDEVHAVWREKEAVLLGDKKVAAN
T2 sequence 2: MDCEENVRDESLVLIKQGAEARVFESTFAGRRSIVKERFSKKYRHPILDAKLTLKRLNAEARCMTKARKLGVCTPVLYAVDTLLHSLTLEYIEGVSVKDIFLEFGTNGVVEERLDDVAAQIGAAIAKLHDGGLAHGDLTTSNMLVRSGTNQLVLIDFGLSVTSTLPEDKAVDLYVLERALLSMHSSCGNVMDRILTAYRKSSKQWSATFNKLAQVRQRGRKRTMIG
T2 sequence 3: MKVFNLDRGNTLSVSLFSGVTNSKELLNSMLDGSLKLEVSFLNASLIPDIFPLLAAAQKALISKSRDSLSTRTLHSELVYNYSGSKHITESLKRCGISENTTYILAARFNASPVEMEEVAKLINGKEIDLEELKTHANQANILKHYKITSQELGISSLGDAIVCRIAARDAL
T2 sequence 4: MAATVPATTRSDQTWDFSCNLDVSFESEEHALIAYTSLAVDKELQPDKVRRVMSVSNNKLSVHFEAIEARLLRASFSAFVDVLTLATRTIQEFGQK
The series can be described thus: EMSA; conflicts with MST; MST: 20 mM PBS pH 7.5, 300 mM NaCl, 0.05% Tween 20, 25 C, 50 nM RNA; EMSA: 20 mM Tris-HCl pH 7.5, 300 mM NaCl, 5 mM b-mercaptoethanol, 20% glycerol, agarose gel in Tris-glycine pH 8.0 (8.5 for FAM-RNA), 4 C. The following applies: protein: recombinant;recombinant;recombinant;recombinant; tags: ;none (6His on partner CGI121);6His (C-term);6His (C-term); chain copies: 2;2;2;2; label: 5' 6-FAM; tRNA cloverleaf.

Series [2] deals with T3, KAE1;BUD32 T162R;CGI121;PCC1 (Arabidopsis thaliana;Arabidopsis …, UniProt O49653;Q94K14;Q6NMZ4;Q8GWD7 1-353;1-226;1-172;1-96, |T162R||).
T3 sequence 1: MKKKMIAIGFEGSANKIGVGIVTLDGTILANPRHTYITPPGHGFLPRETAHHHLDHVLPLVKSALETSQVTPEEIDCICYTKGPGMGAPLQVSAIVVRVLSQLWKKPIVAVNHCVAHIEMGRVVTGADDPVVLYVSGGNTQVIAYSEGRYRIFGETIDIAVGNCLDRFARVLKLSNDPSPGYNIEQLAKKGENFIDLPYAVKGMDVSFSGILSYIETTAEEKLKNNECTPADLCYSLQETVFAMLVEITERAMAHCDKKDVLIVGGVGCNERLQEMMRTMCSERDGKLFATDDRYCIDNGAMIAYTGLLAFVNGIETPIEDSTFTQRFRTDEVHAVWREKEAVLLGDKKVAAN
T3 sequence 2: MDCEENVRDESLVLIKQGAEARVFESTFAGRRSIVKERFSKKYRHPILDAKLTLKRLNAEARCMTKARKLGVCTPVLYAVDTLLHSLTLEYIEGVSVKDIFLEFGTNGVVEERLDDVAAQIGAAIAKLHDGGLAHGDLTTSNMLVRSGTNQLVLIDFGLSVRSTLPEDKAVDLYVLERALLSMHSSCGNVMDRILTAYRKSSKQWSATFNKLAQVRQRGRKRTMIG
T3 sequence 3: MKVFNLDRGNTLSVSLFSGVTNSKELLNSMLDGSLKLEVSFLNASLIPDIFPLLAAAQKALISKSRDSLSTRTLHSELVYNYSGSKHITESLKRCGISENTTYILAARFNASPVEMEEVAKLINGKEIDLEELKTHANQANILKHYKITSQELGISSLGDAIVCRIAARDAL
T3 sequence 4: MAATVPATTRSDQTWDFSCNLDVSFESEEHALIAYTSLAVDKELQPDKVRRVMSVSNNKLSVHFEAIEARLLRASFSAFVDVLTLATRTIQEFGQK
The series can be described thus: MST; MST: 20 mM PBS pH 7.5, 300 mM NaCl, 0.05% Tween 20, 25 C, 50 nM RNA; EMSA: 20 mM Tris-HCl pH 7.5, 300 mM NaCl, 5 mM b-mercaptoethanol, 20% glycerol, agarose gel in Tris-glycine pH 8.0 (8.5 for FAM-RNA), 4 C. The conditions noted are these: protein: recombinant;recombinant;recombinant;recombinant; tags: none (6His on partner PCC1);;6His (C-term);6His (C-term); chain copies: 2;2;2;2; label: 5' 6-FAM; tRNA cloverleaf.

Series [3] addresses T4, KAE1;BUD32;CGI121;PCC1 R70D/R73D/A74E (Arabidopsis thaliana;Arabidopsis …, UniProt O49653;Q94K14;Q6NMZ4;Q8GWD7 1-353;1-226;1-172;1-96, |||R70D;R73D;A74E).
T4 sequence 1: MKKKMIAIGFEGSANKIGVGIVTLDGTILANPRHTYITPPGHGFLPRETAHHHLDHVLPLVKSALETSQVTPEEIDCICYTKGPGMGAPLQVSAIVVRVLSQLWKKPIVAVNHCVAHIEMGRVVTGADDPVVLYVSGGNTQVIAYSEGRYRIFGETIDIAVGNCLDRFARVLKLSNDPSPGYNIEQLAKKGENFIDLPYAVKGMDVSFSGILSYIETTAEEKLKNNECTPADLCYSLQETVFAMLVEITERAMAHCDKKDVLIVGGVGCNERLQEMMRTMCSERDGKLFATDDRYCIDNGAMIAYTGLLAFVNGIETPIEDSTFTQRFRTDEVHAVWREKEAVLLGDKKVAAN
T4 sequence 2: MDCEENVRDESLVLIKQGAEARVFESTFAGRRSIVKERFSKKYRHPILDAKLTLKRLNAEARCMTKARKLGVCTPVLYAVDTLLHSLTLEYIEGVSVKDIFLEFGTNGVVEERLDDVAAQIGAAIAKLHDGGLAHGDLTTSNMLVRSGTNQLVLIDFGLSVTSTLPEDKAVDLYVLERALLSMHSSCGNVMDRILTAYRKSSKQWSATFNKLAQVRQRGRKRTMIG
T4 sequence 3: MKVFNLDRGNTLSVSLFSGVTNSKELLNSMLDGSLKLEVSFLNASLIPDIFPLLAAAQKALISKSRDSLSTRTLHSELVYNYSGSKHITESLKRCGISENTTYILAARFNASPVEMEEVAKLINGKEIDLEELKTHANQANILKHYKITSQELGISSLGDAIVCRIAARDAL
T4 sequence 4: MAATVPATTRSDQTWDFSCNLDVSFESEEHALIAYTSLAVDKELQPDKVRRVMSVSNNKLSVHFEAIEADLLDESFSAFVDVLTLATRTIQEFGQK
As to the kind of experiment: MST; KEOPS monomer; MST: 20 mM PBS pH 7.5, 300 mM NaCl, 0.05% Tween 20, 25 C, 50 nM RNA; EMSA: 20 mM Tris-HCl pH 7.5, 300 mM NaCl, 5 mM b-mercaptoethanol, 20% glycerol, agarose gel in Tris-glycine pH 8.0 (8.5 for FAM-RNA), 4 C. The following applies: protein: recombinant;recombinant;recombinant;recombinant; tags: none (6His on partner PCC1);none (6His on partner CGI121);6His (C-term);6His (C-term); chain copies: 2;2;2;2; label: 5' 6-FAM; tRNA cloverleaf.

As a reminder, the Kd is the equilibrium constant for the complex coming apart.

B1: 5'-6FAM-tRNAArgCCU (structured_RNA)
RNA: GCGCCUGUAGCUCAGUGGAUAGAGCGUCUGUUUCCUAAGCAGAAGGUCGUAGGUUCGACCCCUACCUGGCGCGCCA
Turning to B1, the Kd in the series with KAE1;BUD32;CGI121;PCC1 came to 18.1 ± 3.87 µM; in series [2], 10.5 ± 2.99 µM; in series [3] it was 74.4 ± 13.5 µM. Moreover, the binding result in series [1] is “binds”.

For the origin of these results see article PMC11077089, “Molecular basis of A. thaliana KEOPS complex in biosynthesizing tRNA t6A”.
